Reference: article PMC5629633

System: NC(=O)CC[C@H](N)C(=O)O
Assay: purified protein
Settings: pH 8.0, 30 °C, 11 mM MgCl2, co-substrate ATP

How did the Km turn out when “Cj1418 (L-glutamine kinase) (Campylobacter jejuni subsp. jejuni NCTC 11168 = ATCC 700819)” was run?
The Km was 640 ± 60 µM.
